Results reported in the RNAGym collection of RNA variant scans (doi:10.7554/elife.80360).

B1: CPEB3 Ribozyme (parent)
chain: GGGGGCCACAGCAGAAGCGUUCACGUCGCGGCCCCUGUCAGAUUCUGGUGAAUCUGCGAAUUCUGCUGU

Variants of: B1
Experiment: self-cleavage, relative activity (ratio to wild type); higher = more cleavage; co-transcriptional

Compared with C6U G31U, C6U G37A is lower in self-cleavage: 0.914 for the first, 0.22 for the second.

Going from C6U G37C to C6U G37U, the self-cleavage rises from 0.154 to 0.169.

Going from C6U G41A to C6U G41C, the self-cleavage falls from 0.815 to 0.708.

Compared with C6U G47A, C6U G47C is lower in self-cleavage: 1.01 for the first, 0.996 for the second.

Going from C6U G47U to C6U G48A, the self-cleavage rises from 1.02 to 1.03.

Compared with C6U G48C, C6U G50A is lower in self-cleavage: 0.995 for the first, 0.982 for the second.

Going from C6U G56C to C6U G56U, the self-cleavage rises from 0.772 to 0.968.

Compared with C6U G58A, C6U G58C is lower in self-cleavage: 0.981 for the first, 0.909 for the second.

Going from C6U G65C to C6U G65U, the self-cleavage rises from 0.636 to 0.719.

Going from C6U G68A to C6U G68C, the self-cleavage falls from 1.03 to 0.999.

Going from C6U G68U to C6U U20G, the self-cleavage falls from 1.02 to 0.174.

Going from C6U U21C to C6U U21G, the self-cleavage falls from 0.827 to 0.329.

Going from C6U U26A to C6U U26C, the self-cleavage rises from 0.833 to 0.893.

Going from C6U U36A to C6U U36G, the self-cleavage falls from 0.221 to 0.127.

Going from C6U U38C to C6U U38G, the self-cleavage falls from 0.929 to 0.12.

Compared with C6U U43A, C6U U44A is lower in self-cleavage: 0.917 for the first, 0.887 for the second.

First: C6U U44C
Second: C6U U46A
The self-cleavage of the first is lower: 0.933 for the first, 0.944 for the second.

Going from C6U U46C to C6U U46G, the self-cleavage falls from 1 to 0.987.

Compared with C6U U49C, C6U U53A is lower in self-cleavage: 1.02 for the first, 0.977 for the second.

Compared with C6U U53C, C6U U53G is lower in self-cleavage: 0.914 for the first, 0.719 for the second.

Compared with C6U U55A, C6U U55C is lower in self-cleavage: 0.989 for the first, 0.775 for the second.

Going from C6U U55G to C6U U61A, the self-cleavage falls from 0.888 to 0.736.

First: C6U U61C
Second: C6U U61G
The self-cleavage of the first is lower: 0.647 for the first, 0.809 for the second.

Compared with C6U U62A, C6U U62G is lower in self-cleavage: 0.873 for the first, 0.783 for the second.

Going from C6U U64A to C6U U64C, the self-cleavage falls from 0.853 to 0.829.

First: C6U U64G
Second: C6U U67G
The self-cleavage of the first is lower: 0.92 for the first, 0.995 for the second.

First: C6U U69A
Second: C6U U69G
The self-cleavage of the first is higher: 1.05 for the first, 1.04 for the second.

Compared with C7A, C7A A8G is higher in self-cleavage: 0.643 for the first, 0.8 for the second.

Going from C7A A8U to C7A A10C, the self-cleavage falls from 0.769 to 0.76.

First: C7A A10G
Second: C7A A13G
The self-cleavage of the first is higher: 0.865 for the first, 0.598 for the second.

Going from C7A A13U to C7A A15C, the self-cleavage falls from 0.274 to 0.162.

First: C7A A15G
Second: C7A A16U
The self-cleavage of the first is higher: 0.457 for the first, 0.222 for the second.

First: C7A A23G
Second: C7A A23U
The self-cleavage of the first is lower: 0.421 for the first, 0.824 for the second.

Going from C7A A40C to C7A A40U, the self-cleavage falls from 0.15 to 0.147.

Compared with C7A A51C, C7A A51G is higher in self-cleavage: 0.477 for the first, 0.514 for the second.

Going from C7A A52C to C7A A52U, the self-cleavage rises from 0.412 to 0.466.

Going from C7A A59G to C7A A59U, the self-cleavage falls from 0.469 to 0.157.

Compared with C7A A60C, C7A A60U is higher in self-cleavage: 0.152 for the first, 0.225 for the second.

First: C7A C9G
Second: C7A C9U
The self-cleavage of the first is lower: 0.639 for the first, 0.934 for the second.

Compared with C7A C12A, C7A C12G is higher in self-cleavage: 0.147 for the first, 0.378 for the second.

Going from C7A C18A to C7A C22G, the self-cleavage rises from 0.0823 to 0.0999.

Compared with C7A C24A, C7A C24G is lower in self-cleavage: 0.161 for the first, 0.0158 for the second.

Compared with C7A C24U, C7A C27A is lower in self-cleavage: 0.192 for the first, 0.0789 for the second.

Compared with C7A C27G, C7A C27U is higher in self-cleavage: 0.133 for the first, 0.142 for the second.

First: C7A C29G
Second: C7A C29U
The self-cleavage of the first is lower: 0.12 for the first, 0.261 for the second.

Compared with C7A C32G, C7A C32U is higher in self-cleavage: 0.126 for the first, 0.359 for the second.

Going from C7A C33A to C7A C33G, the self-cleavage rises from 0.119 to 0.226.

First: C7A C33U
Second: C7A C34A
The self-cleavage of the first is higher: 0.489 for the first, 0.106 for the second.

Going from C7A C34G to C7A C34U, the self-cleavage rises from 0.136 to 0.487.

Going from C7A C35G to C7A C35U, the self-cleavage rises from 0.156 to 0.222.

Going from C7A C39A to C7A C39U, the self-cleavage rises from 0.186 to 0.348.

Compared with C7A C45G, C7A C54A is lower in self-cleavage: 0.421 for the first, 0.318 for the second.

Going from C7A C54U to C7A C57A, the self-cleavage falls from 0.614 to 0.173.

Going from C7A C57U to C7A C63U, the self-cleavage rises from 0.172 to 0.515.

First: C7A C66A
Second: C7A C66G
The self-cleavage of the first is lower: 0.354 for the first, 0.42 for the second.

Going from C7A C66U to C7A G11A, the self-cleavage falls from 0.697 to 0.401.

Compared with C7A G11U, C7A G14A is lower in self-cleavage: 0.315 for the first, 0.167 for the second.

Compared with C7A G14C, C7A G14U is lower in self-cleavage: 0.137 for the first, 0.131 for the second.

First: C7A G17A
Second: C7A G17C
The self-cleavage of the first is lower: 0.0679 for the first, 0.14 for the second.

First: C7A G17U
Second: C7A G19C
The self-cleavage of the first is lower: 0.126 for the first, 0.143 for the second.

C7A G19U and C7A G25A are the same in self-cleavage: 0.163 for the first, 0.163 for the second.

Compared with C7A G25C, C7A G25U is lower in self-cleavage: 0.144 for the first, 0.111 for the second.

First: C7A G28A
Second: C7A G28C
The self-cleavage of the first is higher: 0.128 for the first, 0.11 for the second.

Compared with C7A G28U, C7A G30A is higher in self-cleavage: 0.128 for the first, 0.826 for the second.

First: C7A G30C
Second: C7A G30U
The self-cleavage of the first is lower: 0.661 for the first, 0.9 for the second.

First: C7A G31A
Second: C7A G31C
The self-cleavage of the first is higher: 0.499 for the first, 0.159 for the second.

First: C7A G41C
Second: C7A G48A
The self-cleavage of the first is lower: 0.146 for the first, 0.67 for the second.

First: C7A G48U
Second: C7A G50A
The self-cleavage of the first is higher: 0.696 for the first, 0.617 for the second.

Compared with C7A G50U, C7A G56A is lower in self-cleavage: 0.54 for the first, 0.34 for the second.

Going from C7A G56C to C7A G58A, the self-cleavage rises from 0.243 to 0.338.

Going from C7A G58U to C7A G65A, the self-cleavage falls from 0.645 to 0.496.

Going from C7A G65C to C7A G65U, the self-cleavage falls from 0.314 to 0.198.

Going from C7A G68A to C7A G68U, the self-cleavage falls from 0.984 to 0.937.

Compared with C7A U20A, C7A U20C is higher in self-cleavage: 0.0917 for the first, 0.211 for the second.

Going from C7A U20G to C7A U21A, the self-cleavage rises from 0.127 to 0.576.

Compared with C7A U21C, C7A U21G is lower in self-cleavage: 0.266 for the first, 0.077 for the second.

First: C7A U26C
Second: C7A U26G
The self-cleavage of the first is higher: 0.357 for the first, 0.274 for the second.

First: C7A U36C
Second: C7A U36G
The self-cleavage of the first is higher: 0.223 for the first, 0.205 for the second.

First: C7A U38A
Second: C7A U38C
The self-cleavage of the first is lower: 0.191 for the first, 0.221 for the second.

First: C7A U43C
Second: C7A U44C
The self-cleavage of the first is lower: 0.388 for the first, 0.432 for the second.

First: C7A U44G
Second: C7A U46C
The self-cleavage of the first is lower: 0.305 for the first, 0.587 for the second.

Going from C7A U46G to C7A U49A, the self-cleavage falls from 0.654 to 0.601.

Compared with C7A U49C, C7A U49G is lower in self-cleavage: 0.601 for the first, 0.409 for the second.

Variant C7A U53G has a self-cleavage of 0.177.
